This assay addresses T1, human DLL-4 expressed on the surface of CHO-K1 cells (CHO-DLL-4 cells) (human, UniProt Q9NR61 27-685).
T1 construct: whole, on cells; also called cell surface expressed DLL-4; cellular human DLL-4
In words: flow cytometry (HTFC) on CHO-K1 cells stably expressing DLL-4. How it is done:
Cells stably expressing DLL-4 were incubated with 1 μg/ml of anti-DLL-4 antibodies as indicated. The binding was analyzed by flow cytometry (HTFC, Intellicyt).
This example illustrates in vitro data for cell binding as part of an initial screen for several disclosed antibodies. CHO-K1 cells stably expressing DLL-4 (CHO-DLL-4 cells) were lifted in enzyme-free Dissociation Buffer and transferred to V-Bottom 96 well-plates (100,000 cells/well). Cells were incubated with anti-DLL-4 Antibodies in FACS buffer (PBS+2% FBS)+NaN₃ on ice for 45 min. After 2 washes in FACS buffer, a 1:1000 dilution of Phycoerythrin conjugated anti-Human IgG (γ-chain specific) was added and incubated for 30 min. Following a final wash, fluorescence intensity was measured on an Intellicyt High Throughput Flow Cytometer (HTFC). Data were analyzed using Graphpad Prism software using non-linear regression fit. Data points are shown as the median fluorescence intensity (MFI) of positively labeled cells +/− Standard Error. EC₅₀ values are reported as the concentration of antibody to achieve 50% of maximal DLL-4 antibodies binding to DLL-4 expressing cells.
(In flow cytometry, cells or beads pass a laser one at a time.)

B1: anti-DLL-4 antibody C3 (antibody, V domains shown)
VH: QVQLVQSGSELKKPGASVKVSCKASGYTFTSYYMHWVRQVPGQGLEWMGIINPSGGSTSYAQKFQGRVTMTRDTSTSTVYMELSSLRSEDTAVYYCATDYYDSSGYVDFDYWGQGTLVTVSS
VL: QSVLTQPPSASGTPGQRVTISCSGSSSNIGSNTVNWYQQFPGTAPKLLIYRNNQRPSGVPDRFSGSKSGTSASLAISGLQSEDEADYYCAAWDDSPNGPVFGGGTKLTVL
notes: it was detected with anti-human IgG (gamma-chain specific)
On to B1, for which the binding result is reported as “binds”.

B2: anti-DLL-4 antibody G6 (antibody, V domains shown)
VH: EVQLVESGGSLVQPGGSLRLSCAASGFTFSNGWMTWLRQAPGKGLEWVATIKPDGSDTAYVESVKGRFTISRDNAKNLLYLQMDSLRGDDTAVYFCARDLAYNAFDIWGQGTMVTVSS
VL: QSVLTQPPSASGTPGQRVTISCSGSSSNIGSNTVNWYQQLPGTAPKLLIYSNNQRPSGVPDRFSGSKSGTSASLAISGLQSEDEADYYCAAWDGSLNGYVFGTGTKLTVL
notes: Fully human antibody of an IgG class
With B2, the binding result is listed as “binds”.

The values are drawn from US20130323248A1 (SORRENTO THERAPEUTICS, published 2013).
